Results on 94 variants are retold here after the supplement of paper PMC10567573.

The labels stand for the following.
B1: SPOPL (parent)
chain: AKREETKAMESQRAYRFVQGKDWG
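Note: lentivirally expressed fusions sorted by FACS into six bins by GFP to DsRed ratio, PSI derived from sequencing read proportions per bin multiplied by bin number.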

The variants in this data set derive from B1. The experiment in a line: protein stability index of a GFP-peptide fusion (GPS, HEK-293T) (PSI 1-6); higher = more stable. To be noted: c terminus: a fixed tail appended.
In the case of AKREETKWMESQRAYRFVQGKDWG [A8W], the protein stability index amounted to 1.37.
With AKREETKQMESQRAYRFVQGKDWG [A8Q], the protein stability index stood at 3.75.
As for AKREETKEMESQRAYRFVQGKDWG [A8E], the figure is 4.1; as for AKREETKMMESQRAYRFVQGKDWG [A8M], 2.87; as for AKREETKGMESQRAYRFVQGKDWG [A8G], 2.48.
The figure for AKREETKRMESQRAYRFVQGKDWG [A8R] is 3.43.
As for AKREETKPMESQRAYRFVQGKDWG [A8P], the figure is 2.9; as for AKREETKFMESQRAYRFVQGKDWG [A8F], 2.35; as for AKREETKIMESQRAYRFVQGKDWG [A8I], 2.53.
On to AKREETKLMESQRAYRFVQGKDWG [A8L], for which the protein stability index came out at 2.38.
As for AKREETKSMESQRAYRFVQGKDWG [A8S], the figure is 3.37; as for AKREETKHMESQRAYRFVQGKDWG [A8H], 3.28.
Consider AKREETKCMESQRAYRFVQGKDWG [A8C], for which the protein stability index stood at 2.75.
On to AKREETKVMESQRAYRFVQGKDWG [A8V], for which the protein stability index came to 2.42.
The figure for AKREETKNMESQRAYRFVQGKDWG [A8N] is 3.03; for AKREETKKMESQRAYRFVQGKDWG [A8K] it is 3.44; for AKREETKTMESQRAYRFVQGKDWG [A8T] it is 3.37.
The figure for AKREETKYMESQRAYRFVQGKDWG [A8Y] is 2.77; for AKREETKDMESQRAYRFVQGKDWG [A8D] it is 4.01; for ASREETKAMESQRAYRFVQGKDWG [K2S] it is 2.85.
Turning to AMREETKAMESQRAYRFVQGKDWG [K2M], the protein stability index was determined as 2.06.
As for AWREETKAMESQRAYRFVQGKDWG [K2W], the figure is 2.48; as for AVREETKAMESQRAYRFVQGKDWG [K2V], 2.98.
The figure for AGREETKAMESQRAYRFVQGKDWG [K2G] is 2.6.
As for AEREETKAMESQRAYRFVQGKDWG [K2E], the figure is 3.61; as for ARREETKAMESQRAYRFVQGKDWG [K2R], 2.92.
In the case of ANREETKAMESQRAYRFVQGKDWG [K2N], the protein stability index was 3.41.
As for ADREETKAMESQRAYRFVQGKDWG [K2D], the protein stability index is 3.39.
As to AAREETKAMESQRAYRFVQGKDWG [K2A], the protein stability index came out at 3.03.
The figure for AIREETKAMESQRAYRFVQGKDWG [K2I] is 2.71.
Take ATREETKAMESQRAYRFVQGKDWG [K2T]: the protein stability index is 3.37.
The figure for APREETKAMESQRAYRFVQGKDWG [K2P] is 3.3.
As for ALREETKAMESQRAYRFVQGKDWG [K2L], the figure is 2.24; as for AYREETKAMESQRAYRFVQGKDWG [K2Y], 2.74.
As for AQREETKAMESQRAYRFVQGKDWG [K2Q], the figure is 3.13.
Consider AFREETKAMESQRAYRFVQGKDWG [K2F], for which the protein stability index was 2.81.
For the variant ACREETKAMESQRAYRFVQGKDWG [K2C], the protein stability index is 1.75.
As for AHREETKAMESQRAYRFVQGKDWG [K2H], the figure is 2.93.
Take AKREEVKAMESQRAYRFVQGKDWG [T6V]: the protein stability index is 2.29.
For the variant AKREEWKAMESQRAYRFVQGKDWG [T6W], the protein stability index amounted to 2.48.
The figure for AKREESKAMESQRAYRFVQGKDWG [T6S] is 3.58.
For the variant AKREEAKAMESQRAYRFVQGKDWG [T6A], the protein stability index is 2.48.
As for AKREEMKAMESQRAYRFVQGKDWG [T6M], the figure is 2.32; as for AKREEDKAMESQRAYRFVQGKDWG [T6D], 3.18.
For the variant AKREEYKAMESQRAYRFVQGKDWG [T6Y], the protein stability index is 2.46.
The figure for AKREEIKAMESQRAYRFVQGKDWG [T6I] is 2.34; for AKREERKAMESQRAYRFVQGKDWG [T6R] it is 2.67.
As for AKREEKKAMESQRAYRFVQGKDWG [T6K], the figure is 2.89.
In the case of AKREEFKAMESQRAYRFVQGKDWG [T6F], the protein stability index is 2.32.
With AKREEEKAMESQRAYRFVQGKDWG [T6E], the protein stability index stood at 3.51.
As for AKREEPKAMESQRAYRFVQGKDWG [T6P], the figure is 2.91.
The figure for AKREELKAMESQRAYRFVQGKDWG [T6L] is 3.89; for AKREEGKAMESQRAYRFVQGKDWG [T6G] it is 2.56; for AKREENKAMESQRAYRFVQGKDWG [T6N] it is 3.34.
The figure for AKREECKAMESQRAYRFVQGKDWG [T6C] is 3.06; for AKREEQKAMESQRAYRFVQGKDWG [T6Q] it is 3.54; for AKREEHKAMESQRAYRFVQGKDWG [T6H] it is 3.2.
For AKCEETKAMESQRAYRFVQGKDWG [R3C], the protein stability index is 2.26.
As for AKMEETKAMESQRAYRFVQGKDWG [R3M], the figure is 3.32; as for AKQEETKAMESQRAYRFVQGKDWG [R3Q], 3.22; as for AKSEETKAMESQRAYRFVQGKDWG [R3S], 3.34.
On to AKAEETKAMESQRAYRFVQGKDWG [R3A], for which the protein stability index amounted to 3.49.
AKYEETKAMESQRAYRFVQGKDWG [R3Y]: the protein stability index stood at 2.93.
As for AKHEETKAMESQRAYRFVQGKDWG [R3H], the figure is 2.45.
As to AKPEETKAMESQRAYRFVQGKDWG [R3P], the protein stability index came out at 2.67.
Take AKVEETKAMESQRAYRFVQGKDWG [R3V]: the protein stability index came out at 3.24.
The figure for AKFEETKAMESQRAYRFVQGKDWG [R3F] is 2.87; for AKEEETKAMESQRAYRFVQGKDWG [R3E] it is 4.03.
As for AKWEETKAMESQRAYRFVQGKDWG [R3W], the figure is 3.08; as for AKGEETKAMESQRAYRFVQGKDWG [R3G], 3; as for AKTEETKAMESQRAYRFVQGKDWG [R3T], 2.88.
As to AKDEETKAMESQRAYRFVQGKDWG [R3D], the protein stability index is 3.67.
As for AKKEETKAMESQRAYRFVQGKDWG [R3K], the figure is 3.38.
In the case of AKNEETKAMESQRAYRFVQGKDWG [R3N], the protein stability index was found to be 2.91.
For the variant AKLEETKAMESQRAYRFVQGKDWG [R3L], the protein stability index stood at 3.31.
On to AKIEETKAMESQRAYRFVQGKDWG [R3I], for which the protein stability index worked out at 3.36.
With NKREETKAMESQRAYRFVQGKDWG [A1N], the protein stability index is 3.14.
RKREETKAMESQRAYRFVQGKDWG [A1R]: the protein stability index was 2.49.
Turning to QKREETKAMESQRAYRFVQGKDWG [A1Q], the protein stability index is 4.09.
Regarding MKREETKAMESQRAYRFVQGKDWG [A1M], the protein stability index stood at 2.77.
The figure for FKREETKAMESQRAYRFVQGKDWG [A1F] is 3.61; for IKREETKAMESQRAYRFVQGKDWG [A1I] it is 2.59.
Take WKREETKAMESQRAYRFVQGKDWG [A1W]: the protein stability index came out at 2.61.
Turning to VKREETKAMESQRAYRFVQGKDWG [A1V], the protein stability index came out at 2.29.
On to LKREETKAMESQRAYRFVQGKDWG [A1L], for which the protein stability index came out at 2.55.
As for PKREETKAMESQRAYRFVQGKDWG [A1P], the figure is 3.02; as for HKREETKAMESQRAYRFVQGKDWG [A1H], 3.61.
For the variant DKREETKAMESQRAYRFVQGKDWG [A1D], the protein stability index amounted to 3.38.
TKREETKAMESQRAYRFVQGKDWG [A1T]: the protein stability index is 2.93.
As for YKREETKAMESQRAYRFVQGKDWG [A1Y], the figure is 2.57; as for SKREETKAMESQRAYRFVQGKDWG [A1S], 2.81; as for GKREETKAMESQRAYRFVQGKDWG [A1G], 2.82.
The figure for KKREETKAMESQRAYRFVQGKDWG [A1K] is 2.83; for EKREETKAMESQRAYRFVQGKDWG [A1E] it is 3.4.
